Among the data in patent US20070104726A1 are fold signal intensity increase against C3d (Calbiochem) and fold increase in gradient of the linear portion of the binding curve against monomeric C3d values, retold here.

Test [1] has as its target CD21 (CR2) on human CD21+ Raji lymphoblastoid cells (human) (UniProt P20023). The test can be described thus: flow cytometry on Raji cells, 100 nM; reference monomeric C3d (Calbiochem). A general note: Flow cytometry measures light scatter and fluorescence of single cells or particles in a stream.
For test [2], the target named is IgG constant region-CD21 fusion protein (UniProt P20023). The test can be described thus: ELISA, IgG constant region-CD21 fusion coated; reference monomeric C3d (Calbiochem). (An ELISA detects its analyte on a solid surface through an enzyme-linked reagent.)

In the case of “linear trimer of human C3d, called C3d3 or APT2029”, the fold signal intensity increase against C3d (Calbiochem) in test [1] came out at 6.4 fold. In test [2], this substance showed a fold increase in gradient of the linear portion of the binding curve against monomeric C3d of 3.4 fold.
